Test results: patent US20250250357A1 (NANJING ZAIMING PHARMACEUTICAL, published 2025)

Columns and labels:
[1] = biological target: T1, human MSLN protein endogenously expressed on OVCAR3 tumor cells (human, UniProt Q13421 296-598); experiment: FACS on OVCAR3 cells;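 also: flow cytometry of chimeric antibody binding to OVCAR3 cells, 2 h on ice, read as cellular mean fluorescence intensity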
T1 construct: whole, on cells; endogenous expression on a tumor cell line; also called human mesothelin

[2] = biological target: T2, human MSLN-R3 protein expressed on HEK293T cells (HEK293T-hMSLN-R3) (human, UniProt Q13421 487-606); experiment: FACS on HEK293T-hMSLN-R3 cells;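 also: chimeric antibodies incubated with cells on ice for 2 h, binding read by flow cytometry as mean fluorescence intensity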
T2 construct: C-terminal limit uncertain
Description: The desired cells were expanded to the logarithmic growth phase in a T-75 cell culture flask. […] After the cells from the previous step were subjected to cell counting, the cell pellet was resuspended to 2×10⁶ cells/mL in a blocking buffer of [PBS+2% (w/w) BSA] and added into a 96-well FACS reaction plate at 50 μL/well. A chimeric antibody (a sample to be tested) was added at 50 μL/well, and the plate was incubated on ice for 2 h. […] After the plate was centrifuged and washed 5 times with a PBST buffer, assay and analysis were performed by FACS (FACS CantoII, purchased from BD). Data analysis was performed by software (Flowjo) to obtain the mean fluorescence intensity (MFI) of the cells.

[3] = biological target: T3, human MSLN-FL-his protein (human, UniProt Q13421 296-580); experiment: competitive ELISA; row F8-4.5; also: test concentration or dose not given here
T3 construct: made in HEK293E cells, purified on nickel column; also called hMSLN-FL-his; human MSLN full-length protein; not shown: His tag

[4] = biological target: T3, human MSLN-FL-his protein; experiment: competitive ELISA; row F8-7.5; also: test concentration or dose not given here
[5] = biological target: T3, human MSLN-FL-his protein; experiment: competitive ELISA; row Tab021; also: test concentration or dose not given here
[6] = biological target: T3, human MSLN-FL-his protein; experiment: competitive ELISA; row Tab142; also: test concentration or dose not given here
[7] = biological target: T3, human MSLN-FL-his protein; experiment: competitive ELISA; row F8-13.8; also: test concentration or dose not given here
[8] = biological target: T3, human MSLN-FL-his protein; experiment: competitive ELISA; row F8-18.9; also: test concentration or dose not given here
[9] = biological target: T3, human MSLN-FL-his protein; experiment: competitive ELISA; row F8-27.1; also: test concentration or dose not given here
[10] = biological target: T3, human MSLN-FL-his protein; experiment: competitive ELISA; row F8-5.15; also: test concentration or dose not given here
[11] = biological target: T3, human MSLN-FL-his protein; experiment: competitive ELISA; row F8-12.13; also: test concentration or dose not given here
[12] = biological target: T3, human MSLN-FL-his protein; experiment: competitive ELISA; row F8-15.19; also: test concentration or dose not given here
[13] = biological target: T3, human MSLN-FL-his protein; experiment: competitive ELISA; row F8-19.21; also: test concentration or dose not given here
[14] = biological target: T3, human MSLN-FL-his protein; experiment: competitive ELISA; row F8-31.22; also: test concentration or dose not given here
[15] = biological target: T3, human MSLN-FL-his protein; experiment: SPR (Biacore), antibody captured on Protein A chip;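 also: flow cell at 25 °C, antigen injected for 240 s at five concentrations from 200 nM downward, dissociation followed up to 600 s, double-referenced, fitted with Langmuir 1:1 model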
Description: The flow cell was set at 25° C. The sample block was set at 16° C. Both were pretreated with the running buffer. In each cycle, first, the antibody to be tested was captured using the Protein A chip, and then a single concentration of human MSLN-FL-his protein was injected. […] The association was determined by injecting different concentrations of human MSLN-FL-his in solution for 240 s on end, wherein the flow rate was 30 μL/min, and the protein was diluted in a 1:1 dilution ratio from 200 nM (see detailed results for actual concentrations tested) to obtain 5 concentrations in total. The dissociation phase was monitored for up to 600 s and triggered by switching from the sample solution to the running buffer. The surface was regenerated by washing with 10 mM glycine solution (pH 1.5) at a flow rate of 30 μL/min for 30 s. The difference in bulk refractive index was corrected by subtracting the responses obtained from the goat anti-human Fc surface. Blank injections were also subtracted (=double reference). To calculate the apparent KD and other kinetic parameters, the Langmuir 1:1 model was used.

T3 sequence (Q13421 other isoform, or with tags, fused parts or gaps): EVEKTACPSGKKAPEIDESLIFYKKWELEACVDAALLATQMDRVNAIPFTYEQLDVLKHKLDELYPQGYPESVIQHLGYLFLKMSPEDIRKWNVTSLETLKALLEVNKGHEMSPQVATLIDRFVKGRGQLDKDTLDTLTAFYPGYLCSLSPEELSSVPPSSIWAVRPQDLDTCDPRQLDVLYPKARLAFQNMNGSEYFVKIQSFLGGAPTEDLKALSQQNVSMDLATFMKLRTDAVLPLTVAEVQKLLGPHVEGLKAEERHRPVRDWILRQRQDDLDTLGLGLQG
T1 sequence (Q13421 other isoform, or with tags, fused parts or gaps): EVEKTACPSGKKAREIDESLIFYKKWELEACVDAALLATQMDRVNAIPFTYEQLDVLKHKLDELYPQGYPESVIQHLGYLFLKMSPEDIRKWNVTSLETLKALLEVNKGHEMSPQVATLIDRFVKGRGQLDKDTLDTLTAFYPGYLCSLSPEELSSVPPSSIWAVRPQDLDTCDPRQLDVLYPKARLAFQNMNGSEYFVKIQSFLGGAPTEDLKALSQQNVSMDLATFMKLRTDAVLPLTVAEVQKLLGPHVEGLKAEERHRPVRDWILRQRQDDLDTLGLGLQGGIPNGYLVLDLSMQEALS
T2 sequence (Q13421 495-614): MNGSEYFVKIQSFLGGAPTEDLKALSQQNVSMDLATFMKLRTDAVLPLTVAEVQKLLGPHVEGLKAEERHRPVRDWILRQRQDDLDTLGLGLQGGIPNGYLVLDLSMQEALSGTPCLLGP

Binder	EC50 [1]	Maximum mean fluorescence intensity [1]	Maximum mean fluorescence intensity [2]	binding result [2]	competition rate [3]	competition rate [4]	competition rate [5]	competition rate [6]	competition rate [7]	competition rate [8]	competition rate [9]	competition rate [10]	competition rate [11]	competition rate [12]	competition rate [13]	competition rate [14]	Kd [15]	koff [15]	kon [15]
S009-F8-4.5 (antibody, human IgG1, kappa, V domains shown, human-murine chimeric antibody, human IgG1/kappa constant regions) VH: QVQLQQPGAELVKPGASVKLSCKASGYTFTIYWMHWVKQRPGQGLEWIGMIHPNSGNTNYNEKFKSKATLTVDKSSSTAYMQLSSLTSEDSAVYYCSLIHWYFDVWGTGTTVTVSS VL: QIVLTQSPAIMSASPGEKVTMTCSASSSVSYMYWYQQKPGSSPRLLIYDTSNLASGVPVRFSGSGSGTSYSLTISRMEAEDAATYYCQQWSSYPLTFGAGTKLELKR	4.93 nM	14000	192	no binding	97.5%	23.6%	9.76%	97.8%	95.8%	8.32%	99.8%	100%	98.9%	100%	98.9%	89.7%	0.824 nM	0.000599 s⁻¹	727000 M⁻¹ s⁻¹
S009-F8-18.9 (antibody, human IgG1, kappa, V domains shown, human-murine chimeric antibody, human IgG1/kappa constant regions) VH: EFQLQQSGPELVKPGASVKISCKASGYSFTDYNMNWVKQSNGKSLEWIGIINPNYGTTSYNQKFKGRATLTVDQSSSTAYVQLNSLTSEDSAVYYCARGGYDNEAMDYWGQGTSVTVSS VL: QIVLTQSPAIMSASPGEKVTMTCSASSSVSYMHWYQQKSGTSPKRWIYDTSKLASGVPARFSGSGSGTSYSLTISSMEAEDAATYYCQQWSSNPPTFGAGTKLELKR	24.1 nM	10800	131	no binding	83.3%	-116%	2.63%	85.5%	77.5%	6.6%	96.8%	99.7%	97.2%	99.5%	91.3%	98%	3.17 nM	0.000876 s⁻¹	276000 M⁻¹ s⁻¹
S009-F8-19.21 (antibody, human IgG1, kappa, V domains shown, human-murine chimeric antibody, human IgG1/kappa constant regions) VH: EFQLQQSGPELVKPGASVKISCKTSGYSFTDYNMNWVKQSNGKSLEWIGVINPNYGTTGYNQKFKGKATLTVDQSSSTAYMQLNSLTSEDSAVYYCARGGYDGEAMDYWGHGTSVTVSS VL: QIVLTQSPAIMSASPGEKVTMTCSASSSVNYMHWYQQKSGTSPKRWIYDTSKLASGVPARFSGSGSGTSYSLTISSMEAEDAATYYCQQWSSYPPTFGGGTKLEIKR	5.13 nM	13000	98	no binding	89.7%	-137%	4.93%	92.2%	82%	6.96%	98.4%	99.5%	97.3%	99.8%	95.4%	98.5%	1.98 nM	0.00172 s⁻¹	871000 M⁻¹ s⁻¹
S009-F8-27.1 (antibody, human IgG1, kappa, V domains shown, human-murine chimeric antibody, human IgG1/kappa constant regions) VH: EVQLVESGGGLVKPGGSLKLSCAASGFTFSSYAMSWVRQTPEKRLEWVATISDGGNYTYYPDNVKGRFTISRDNAKNNLYLQMSHLKSEDTAMYYCAGDRGYPYAMDSWGQGTSVTVSS VL: NIMMTQSPSSLAVSAGEKVTMSCKSSQSVLYSSNQKNYLAWYQQKPGQSPKLLIYWASTRESGVPDRFTGSGSGTDFTLTISNVHAEDLAVYYCHQYLSSLTFGAGTKLELKR	77.9 nM	7620	120	no binding	92%	-9.43%	12.2%	86.2%	74.6%	-2.77%	95.3%	99.8%	98.7%	99.2%	90.2%	-13.1%	1.95 nM	0.000234 s⁻¹	120000 M⁻¹ s⁻¹

Now those with a lower EC50 [1], led by results:

EC50 [1]	Maximum mean fluorescence intensity [1]	Maximum mean fluorescence intensity [2]	binding result [2]	competition rate [3]	competition rate [4]	competition rate [5]	competition rate [6]	competition rate [7]	competition rate [8]	competition rate [9]	competition rate [10]	competition rate [11]	competition rate [12]	competition rate [13]	competition rate [14]	Kd [15]	koff [15]	kon [15]	Binder
2.24 nM	9830	135	no binding	88.2%	-135%	6.56%	65.5%	51.1%	10.1%	93.5%	99.3%	93.7%	98.5%	75.9%	92.2%	5.5 nM	0.00296 s⁻¹	539000 M⁻¹ s⁻¹	S009-F8-12.13 (antibody, human IgG1, kappa, V domains shown, human-murine chimeric antibody, human IgG1/kappa constant regions) VH: QVQLQQPGAELVKPGASVKLSCKASGYTFTSYWMHWVKQRPGQGLEWIGMIHPNSGSTNYNEKFKSKATLTVDKSSSTAYMQLSSLTSEDSAVYYCARRTPIITLVGHWYFDVWGTGTTVTVSS VL: DIVMTQSHKFMSTSVGDRVSITCKASQDVGTAVAWYQQKPGQSPKLLIYWASTRHTGVPDRFTGSGSGTDFTLTISNVQSEDLADYFCQQYSSYPLTFGAGTKLELKR
3.16 nM	8140	165	no binding	43.8%	-117%	-2.08%	39.3%	24%	8.37%	75.5%	99.3%	89.3%	94.1%	46.9%	90.7%	5.37 nM	0.00724 s⁻¹	1.35e+06 M⁻¹ s⁻¹	S009-F8-15.19 (antibody, human IgG1, kappa, V domains shown, human-murine chimeric antibody, human IgG1/kappa constant regions) VH: EFQLQQSGPELVKPGASVKISCKASGYSFTDYNMNWVKQSNGKSLEWIGIINPYYGTTSNNQNFKGKATLTVDQSSSTAYMQLNSLTSDDSAVYYCARWLRRDAMDYWGQGTSVTVSS VL: DIVMTPSHKFMSTSVGDRVSIACKASQDVGSSVAWYQQKPGQSPKLLIYWTSTRHTGVPDRFTGSGSGTDFTLTISNVQSEDLADYFCQQYSSYPWTFGGGTKLEIKR
1.42 nM	13000	95	no binding	93%	-135%	14.2%	93.8%	86.2%	11.3%	98.4%	99.9%	97.9%	99.8%	96.5%	99%	0.95 nM	0.00125 s⁻¹	1.31e+06 M⁻¹ s⁻¹	S009-F8-13.8 (antibody, human IgG1, kappa, V domains shown, human-murine chimeric antibody, human IgG1/kappa constant regions) VH: EFQLQQSGPELVKPGASVKISCKASGYSFTDYNMNWVKQTNGKSLEWIGIINPNYGTSSYNQKFKGKATLTVDQSSSTAYMQLNSLTSEDSAVYYCARVGRDNSGFDYWGQGTTLTVSS VL: QIVLTQSPAIMSASPGEKVTMTCSASSSVSYMYWYQQKPGSSPRLLIYDTSNLASGVPVRFSGSGSGTSYSLTISRMEAEDAATYYCQQWSSYPPTFGSGTELEIKR
0.71 nM	8990	279	no binding	3.24%	85.8%	14.2%	2.16%	3.15%	11.2%	3.35%	83.3%	-23.2%	-15.7%	14.7%	-71.5%	92.6 nM	0.0215 s⁻¹	232000 M⁻¹ s⁻¹	S009-F8-7.5 (antibody, human IgG1, kappa, V domains shown, human-murine chimeric antibody, human IgG1/kappa constant regions) VH: DVQLQESGPGLVKPSQSLSLTCSVTGYSITSGYYWNWIRQFPGNKLEWMAYIRYDGSNNYNPSLKNRISIIRDTSKNQFFLRLNSVTTEDTATYYCAKSYYGMDDWGQGISVTVSS VL: DIQMTQSPASLSASVGETVTITCRTSGDIHNYLAWYQQKQGKSPQLLVYKAKTLENGVPSRFTGSGSGTQFSLKIDSLQPEDFGTYYCQHFWTTPYTFGGGTKLEIKR
